Reference: patent US11440969B2, “Use of human epididymis protein 4 (HE4) for assessing responsiveness of MUC 16-positive cancer treatment” (Genentech, Inc., priority 2016, dated 2022)

Experiment: Safety of DMUC5754A in patients: related adverse events, DLT, MTD/RP2D (NCI CTCAE v4.0)
Type: in vivo, human
Conditions: for On study PN = No, patients n (%) / On study PN = Yes, patients n (%) / Median time to onset of first PN on study: q1w dosing
Experimental: This multicenter, open-label, dose-escalation study was designed to identify the recommended Phase II dose (RP2D) of DMUC5754A in patients with platinum-resistant OC or unresectable pancreatic cancer. In the single-agent dose escalation stage utilizing a 3+3 enrollment scheme, patients were given intravenous DMUC5754A (Genentech Inc.) 0.3-3.2 mg/kg every 3 weeks (q3w) to evaluate the safety, tolerability, and pharmacokinetics of DMUC5754A. Following determination of the maximum tolerated dose (MTD), dose-expansion cohorts were enrolled at the RP2D of 2.4 mg/kg to further characterize the safety and preliminary clinical efficacy of DMUC5754A.
Dosing on a weekly (qlw) schedule was also evaluated at the RP2D, employing a 3+3 design to determine the MTD of weekly dosing, followed by a cohort expansion to further characterize the safety and activity of q1w dosing.
Safety was evaluated according to NCI CTCAE v4.0. […] The maximum tolerated dose (MTD) was defined as the dose at which ≤1 of 6 patients at an assigned dose with protocol-defined DLT. Patients who experienced a DLT or adverse event (AE) meeting DLT criteria after the DLT assessment window were allowed to delay dosing for up to 2 weeks or undergo a dose reduction.

[1] = q1w patients, over all dose levels

B1: DMUC5754A: antibody-drug conjugate: humanized IgG1 anti-MUC16 monoclonal antibody and MMAE, linked through protease labile linker maleimidocaproyl-valine-citrulline-p-aminobenzyloxycarbonyl (conjugate, chains of the INN, looked up)
VH: EVQLVESGGGLVQPGGSLRLSCAASGYSITNDYAWNWVRQAPGKGLEWVGYISYSGYTTYNPSLKSRFTISRDTSKNTLYLQMNSLRAEDTAVYYCARWTSGLDYWGQGTLVTVSS
VL: DIQMTQSPSSLSASVGDRVTITCKASDLIHNWLAWYQQKPGKAPKLLIYGATSLETGVPSRFSGSGSGTDFTLTISSLQPEDFATYYCQQYWTTPFTFGQGTKVEIK
modifications: MMAE via mc-vc-PABC linker
protocol-defined DLTs (3.2 mg/kg q3w, OC, 1 Grade 4 hypocalcaemia and 1 Grade 3 uric acid increase, in 2 of 3 DLT-evaluable patients): 2
Alopecia (related AE), patients n (%) (q1w 0.8 mg/kg (n = 3)): 0
Anemia (related AE), patients n (%) (q1w 0.8 mg/kg (n = 3)): 1 (33.3%)
Any adverse events (related), patients n (%) (q1w 0.8 mg/kg (n = 3)): 2 (66.7%)
Arthralgia (related AE), patients n (%) (q1w 0.8 mg/kg (n = 3)): 0
Aspartate aminotransferase increased (related AE), patients n (%) (q1w 0.8 mg/kg (n = 3)): 0
Constipation (related AE), patients n (%) (q1w 0.8 mg/kg (n = 3)): 1 (33.3%)
Decreased appetite (related AE), patients n (%) (q1w 0.8 mg/kg (n = 3)): 0
Diarrhea (related AE), patients n (%) (q1w 0.8 mg/kg (n = 3)): 0
Fatigue (related AE), patients n (%) (q1w 0.8 mg/kg (n = 3)): 0
Headache (related AE), patients n (%) (q1w 0.8 mg/kg (n = 3)): 0
Hypomagnesaemia (related AE), patients n (%) (q1w 0.8 mg/kg (n = 3)): 1 (33.3%)
Hyponatremia (related AE), patients n (%) (q1w 0.8 mg/kg (n = 3)): 0
Nausea (related AE), patients n (%) (q1w 0.8 mg/kg (n = 3)): 0
Neutropenia (related AE), patients n (%) (q1w 0.8 mg/kg (n = 3)): 1 (33.3%)
Peripheral neuropathy (related AE), patients n (%) (q1w 0.8 mg/kg (n = 3)): 0
Vomiting (related AE), patients n (%) (q1w 0.8 mg/kg (n = 3)): 0
Alopecia (related AE), patients n (%) (q1w 1.1 mg/kg (n = 7)): 1 (14.3%)
Anemia (related AE), patients n (%) (q1w 1.1 mg/kg (n = 7)): 3 (42.9%)
Any adverse events (related), patients n (%) (q1w 1.1 mg/kg (n = 7)): 7 (100.0%)
Arthralgia (related AE), patients n (%) (q1w 1.1 mg/kg (n = 7)): 2 (28.6%)
Aspartate aminotransferase increased (related AE), patients n (%) (q1w 1.1 mg/kg (n = 7)): 2 (28.6%)
Constipation (related AE), patients n (%) (q1w 1.1 mg/kg (n = 7)): 0
Decreased appetite (related AE), patients n (%) (q1w 1.1 mg/kg (n = 7)): 1 (14.3%)
Diarrhea (related AE), patients n (%) (q1w 1.1 mg/kg (n = 7)): 3 (42.9%)
Fatigue (related AE), patients n (%) (q1w 1.1 mg/kg (n = 7)): 2 (28.6%)
Headache (related AE), patients n (%) (q1w 1.1 mg/kg (n = 7)): 2 (28.6%)
Hypomagnesaemia (related AE), patients n (%) (q1w 1.1 mg/kg (n = 7)): 2 (28.6%)
Hyponatremia (related AE), patients n (%) (q1w 1.1 mg/kg (n = 7)): 1 (14.3%)
Nausea (related AE), patients n (%) (q1w 1.1 mg/kg (n = 7)): 4 (57.1%)
Neutropenia (related AE), patients n (%) (q1w 1.1 mg/kg (n = 7)): 1 (14.3%)
Peripheral neuropathy (related AE), patients n (%) (q1w 1.1 mg/kg (n = 7)): 1 (14.3%)
Vomiting (related AE), patients n (%) (q1w 1.1 mg/kg (n = 7)): 2 (28.6%)
Alopecia (related AE), patients n (%) (q1w 1.4 mg/kg (n = 7)): 2 (28.6%)
Anemia (related AE), patients n (%) (q1w 1.4 mg/kg (n = 7)): 2 (28.6%)
Any adverse events (related), patients n (%) (q1w 1.4 mg/kg (n = 7)): 5 (71.4%)
Arthralgia (related AE), patients n (%) (q1w 1.4 mg/kg (n = 7)): 1 (14.3%)
Aspartate aminotransferase increased (related AE), patients n (%) (q1w 1.4 mg/kg (n = 7)): 1 (14.3%)
Constipation (related AE), patients n (%) (q1w 1.4 mg/kg (n = 7)): 2 (28.6%)
Decreased appetite (related AE), patients n (%) (q1w 1.4 mg/kg (n = 7)): 3 (42.9%)
Diarrhea (related AE), patients n (%) (q1w 1.4 mg/kg (n = 7)): 0
Fatigue (related AE), patients n (%) (q1w 1.4 mg/kg (n = 7)): 2 (28.6%)
Headache (related AE), patients n (%) (q1w 1.4 mg/kg (n = 7)): 0
Hypomagnesaemia (related AE), patients n (%) (q1w 1.4 mg/kg (n = 7)): 0
Hyponatremia (related AE), patients n (%) (q1w 1.4 mg/kg (n = 7)): 1 (14.3%)
Nausea (related AE), patients n (%) (q1w 1.4 mg/kg (n = 7)): 4 (57.1%)
Neutropenia (related AE), patients n (%) (q1w 1.4 mg/kg (n = 7)): 1 (14.3%)
Peripheral neuropathy (related AE), patients n (%) (q1w 1.4 mg/kg (n = 7)): 2 (28.6%)
Vomiting (related AE), patients n (%) (q1w 1.4 mg/kg (n = 7)): 5 (71.4%)
Alopecia (related AE), patients n (%) (q1w 1.6 mg/kg (n = 6)): 2 (33.3%)
Anemia (related AE), patients n (%) (q1w 1.6 mg/kg (n = 6)): 2 (33.3%)
Any adverse events (related), patients n (%) (q1w 1.6 mg/kg (n = 6)): 6 (100.0%)
Arthralgia (related AE), patients n (%) (q1w 1.6 mg/kg (n = 6)): 0
Aspartate aminotransferase increased (related AE), patients n (%) (q1w 1.6 mg/kg (n = 6)): 1 (16.7%)
Constipation (related AE), patients n (%) (q1w 1.6 mg/kg (n = 6)): 0
Decreased appetite (related AE), patients n (%) (q1w 1.6 mg/kg (n = 6)): 1 (16.7%)
Diarrhea (related AE), patients n (%) (q1w 1.6 mg/kg (n = 6)): 2 (33.3%)
Fatigue (related AE), patients n (%) (q1w 1.6 mg/kg (n = 6)): 3 (50.0%)
Headache (related AE), patients n (%) (q1w 1.6 mg/kg (n = 6)): 1 (16.7%)
Hypomagnesaemia (related AE), patients n (%) (q1w 1.6 mg/kg (n = 6)): 2 (33.3%)
Hyponatremia (related AE), patients n (%) (q1w 1.6 mg/kg (n = 6)): 1 (16.7%)
Nausea (related AE), patients n (%) (q1w 1.6 mg/kg (n = 6)): 3 (50.0%)
Neutropenia (related AE), patients n (%) (q1w 1.6 mg/kg (n = 6)): 3 (50.0%)
Peripheral neuropathy (related AE), patients n (%) (q1w 1.6 mg/kg (n = 6)): 1 (16.7%)
Vomiting (related AE), patients n (%) (q1w 1.6 mg/kg (n = 6)): 2 (33.3%)
Alopecia (related AE), patients n (%) (q1w All Patients (n = 23)): 5 (21.7%)
Anemia (related AE), patients n (%) (q1w All Patients (n = 23)): 8 (34.8%)
Any adverse events (related), patients n (%) (q1w All Patients (n = 23)): 20 (87.0%)
Arthralgia (related AE), patients n (%) (q1w All Patients (n = 23)): 3 (13.0%)
Aspartate aminotransferase increased (related AE), patients n (%) (q1w All Patients (n = 23)): 4 (17.4%)
Constipation (related AE), patients n (%) (q1w All Patients (n = 23)): 3 (13.0%)
Decreased appetite (related AE), patients n (%) (q1w All Patients (n = 23)): 5 (21.7%)
Diarrhea (related AE), patients n (%) (q1w All Patients (n = 23)): 5 (21.7%)
Fatigue (related AE), patients n (%) (q1w All Patients (n = 23)): 7 (30.4%)
Headache (related AE), patients n (%) (q1w All Patients (n = 23)): 3 (13.0%)
Hypomagnesaemia (related AE), patients n (%) (q1w All Patients (n = 23)): 5 (21.7%)
Hyponatremia (related AE), patients n (%) (q1w All Patients (n = 23)): 3 (13.0%)
Nausea (related AE), patients n (%) (q1w All Patients (n = 23)): 11 (47.8%)
Neutropenia (related AE), patients n (%) (q1w All Patients (n = 23)): 6 (26.1%)
Vomiting (related AE), patients n (%) (q1w All Patients (n = 23)): 9 (39.1%)
patients with AEs leading to treatment discontinuation (q1w cohorts, 3/23 patients): 13.0%
On study PN = No, patients n (%) (Prior neuropathy = No): 10 (43%)
On study PN = Yes, patients n (%) (Prior neuropathy = No): 2 (9%)
Median time to onset of first PN on study (Prior neuropathy = Yes): 190 days
On study PN = No, patients n (%) (Prior neuropathy = Yes): 9 (39%)
On study PN = Yes, patients n (%) (Prior neuropathy = Yes): 2 (9%)
Median time to onset of first PN on study (Total): 190 days
On study PN = No, patients n (%) (Total): 19 (83%)
On study PN = Yes, patients n (%) (Total): 4 (17%)
Drug-related SAE dehydration, patients (q1w patients): 1
Drug-related SAE diarrhea, patients (q1w patients): 1
Drug-related SAE nausea, patients (q1w patients): 1
Drug-related SAE posterior reversible encephalopathy syndrome, patients (q1w patients): 1
alopecia, related AE [1]: 21.7%
anemia, related AE [1]: 34.8%
decreased appetite, related AE [1]: 21.7%
diarrhea, related AE [1]: 21.7%
fatigue, related AE [1]: 30.4%
hypomagnesaemia, related AE [1]: 21.7%
nausea, related AE [1]: 47.8%
neutropenia, related AE [1]: 26.1%
vomiting, related AE [1]: 39.1%
Grade ≥3 related diarrhea (q1w patients, total): 8.7%
Grade ≥3 related hyponatraemia (q1w patients, total): 8.7%
Grade ≥3 related neutropenia (q1w patients, total): 17.4%
RP2D (q1w schedule): 1.4 mg/kg
Grade ≥3 related diarrhea, patients (q1w, at 1.4 mg/kg): 0
Grade ≥3 related hyponatraemia, patients (q1w, at 1.4 mg/kg): 0
Grade ≥3 related neutropenia, patients (q1w, at 1.4 mg/kg): 1
MTD dose (q3w): 2.4 mg/kg
Alopecia (related AE), patients (q3w 0.3 mg/kg (n = 3)): 0
Any adverse events (related), patients (q3w 0.3 mg/kg (n = 3)): 3
Arthralgia (related AE), patients (q3w 0.3 mg/kg (n = 3)): 0
Asthenia (related AE), patients (q3w 0.3 mg/kg (n = 3)): 0
Decreased appetite (related AE), patients (q3w 0.3 mg/kg (n = 3)): 1
Diarrhea (related AE), patients (q3w 0.3 mg/kg (n = 3)): 0
Dysgeusia (related AE), patients (q3w 0.3 mg/kg (n = 3)): 0
Fatigue (related AE), patients (q3w 0.3 mg/kg (n = 3)): 0
Hypokalemia (related AE), patients (q3w 0.3 mg/kg (n = 3)): 0
Hypomagnesaemia (related AE), patients (q3w 0.3 mg/kg (n = 3)): 1
Hypophosphatemia (related AE), patients (q3w 0.3 mg/kg (n = 3)): 0
Nausea (related AE), patients (q3w 0.3 mg/kg (n = 3)): 1
Neutropenia (related AE), patients (q3w 0.3 mg/kg (n = 3)): 0
Peripheral neuropathy (related AE), patients (q3w 0.3 mg/kg (n = 3)): 1
